Test results from patent EP4545090A1 (Universität Leipzig, dated 2025).

T1: IFNGR1, human, endogenous in podocytes (human, UniProt P15260 18-489)
T1 construct: whole, on cells
T1 sequence (looked up): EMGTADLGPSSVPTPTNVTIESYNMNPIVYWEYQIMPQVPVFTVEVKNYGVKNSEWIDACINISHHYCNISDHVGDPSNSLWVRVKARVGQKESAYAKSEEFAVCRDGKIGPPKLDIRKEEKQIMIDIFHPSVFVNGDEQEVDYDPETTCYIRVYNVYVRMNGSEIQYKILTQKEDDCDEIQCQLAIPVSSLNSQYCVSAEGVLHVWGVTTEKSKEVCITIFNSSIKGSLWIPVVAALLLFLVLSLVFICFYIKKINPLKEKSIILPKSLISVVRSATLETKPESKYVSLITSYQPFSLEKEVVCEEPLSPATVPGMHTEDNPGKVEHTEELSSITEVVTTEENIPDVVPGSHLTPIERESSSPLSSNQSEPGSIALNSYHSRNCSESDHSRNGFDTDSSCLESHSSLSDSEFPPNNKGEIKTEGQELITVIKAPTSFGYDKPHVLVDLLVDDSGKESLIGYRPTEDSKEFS


Key:
[1] = molecular target: IFNAR1 as used in the microscale thermophoresis binding assay (Homo sapiens (Human)) (UniProt P17181); assay: microscale thermophoresis binding assay
[2] = molecular target: T1, IFNGR1, human, endogenous in podocytes; assay: TF co-immunoprecipitation from human podocyte lysates, immunoblot

Molecule	Kd [1] [nM]	binding result [2]
tissue factor (TF) as used in the microscale thermophoresis binding assay (from UniProt P13726 33-251) (receptor)	1160	
tissue factor (TF), human, as expressed by cells (receptor, also called hTF; human TF) SGTTNTVAAYNLTWKSTNFKTILEWEPKPVNQVYTVQISTKSGDWKSKCFYTTDTECDLTDEIVKDVKQTYLARVFSYPAGNVESTGSAGEPLYENSPEFTPYLETNLGQPTIQSFEQVGTKVNVTVEDERTLVRRNNTFLSLRDVFGKDLIYTLYYWKSSSSGKKTAKTNTNEFLIDVDKGENYCFSVQAVIPSRTVNRKGTDSPVECMGQEKGEFREIFYIIGAVVFVVIILVIILAISLHKCRKAGVGQSWKENSPLNVS		no binding
